The test has as its target unlabeled F-actin from rabbit skeletal muscle (rabbit, UniProt P68135 1-377).

B1: human cMyBP-C N-terminal domains C0–C1 (domain or fragment)
chain: MPEPGKKPVSAFSKKPRSVEVAAGSPAVFEAETERAGVKVRWQRGGSDISASNKYGLATEGTRHTLTVREVGPADQGSYAVIAGSSKVKFDLKVIEAEKAEPMLAPAPAPAEATGAPGEAPAPAAELGESAPSPKGSSSAALNGPTPGAPDDPIGLFVMRPQDGEVTVGGSITFSARVAGASLLKPPVVKWFKGKWVDLSSKVGQHLQLHDSYDRASKVYLFELHITDAQPAFTGSYRCEVSTKDKFDCSNFNLTV
By Kd is commonly meant a measure of binding affinity in units of concentration. In the case of B1, binding was characterised by a dissociation constant (Kd) of 32 µM.

B2: human cMyBP-C C0–C2 3SD (S275D, S284D, S304D) (domain or fragment)
chain: MPEPGKKPVSAFSKKPRSVEVAAGSPAVFEAETERAGVKVRWQRGGSDISASNKYGLATEGTRHTLTVREVGPADQGSYAVIAGSSKVKFDLKVIEAEKAEPMLAPAPAPAEATGAPGEAPAPAAELGESAPSPKGSSSAALNGPTPGAPDDPIGLFVMRPQDGEVTVGGSITFSARVAGASLLKPPVVKWFKGKWVDLSSKVGQHLQLHDSYDRASKVYLFELHITDAQPAFTGSYRCEVSTKDKFDCSNFNLTVHEAMGTGDLDLLSAFRRTDLAGGGRRIDDSHEDTGILDFSSLLKKRDDFRTPRDSKLEAPAEEDVWEILRQAPPSEYERIAFQYGVTDLRGMLKRLKGMRRDEKKSTAFQKKLEPAYQVSKGHKIRLTVELADHDAEVKWLKNGQEIQMSGSKYIFESIGAKRTLTISQCSLADDAAYQCVVGGEKCSTELFVKEPPVLITRPLEDQLVMVGQRVEFECEVSEEGAQVKWLKDGVELTREETFKYRFKKDGQRHHLIINEAMLEDAGHYALCTSGGQALAELIVQEKKLEVYQSIADLMVGAKDQAVFKCEVSDENVRGVWLKNGKELVPDSRIKVSHIGRVHKLTIDDVTPADEADYSFVPEGFACNLSAKLHFMEVKIDFVPRQEPPKIHLDCPGRIPDTIVVVAGNKLRLDVPISGDPAPTVIWQKAITQGNKAPARPAPDAPEDTGDSDEWVFDKKLLCETEGRVRVETTKDRSIFTVEGAEKEDEGVYTVTVKNPVGEDQVNLTVKVIDVPDAPAAPKISNVGEDSCTVQWEPPAYDGGQPILGYILERKKKKSYRWMRLNFDLIQELSHEARRMIEGVVYEMRVYAVNAIGMSRPSPASQPFMPIGPPSEPTHLAVEDVSDTTVSLKWRPPERVGAGGLDGYSVEYCPEGCSEWVAALQGLTEHTSILVKDLPTGARLLFRVRAHNMAGPGAPVTTTEPVTVQEILQRPRLQLPRHLRQTIQKKVGEPVNLLIPFQGKPRPQVTWTKEGQPLAGEEVSIRNSPTDTILFIRAARRVHSGTYQVTVRIENMEDKATLVLQVVDKPSPPQDLRVTDAWGLNVALEWKPPQDVGNTELWGYTVQKADKKTMEWFTVLEHYRRTHCVVPELIIGNGYYFRVFSQNMVGFSDRAATTKEPVFIPRPGITYEPPNYKALDFSEAPSFTQPLVNRSVIAGYTAMLCCAVRGSPKPKISWFKNGLDLGEDARFRMFSKQGVLTLEIRKPCPFDGGIYVCRATNLQGEARCECRLEVRVPQ
For the molecule B2, binding was put at a Kd of 7 µM.

Source of the values: paper PMC6827302 (2019).
